Results on 2 molecules are retold here after paper PMC8609364, “A Selective Tether Recruits Activated Response Regulator CheB to Its Chemoreceptor Substrate” (mBio, 2021).

Assay [1] deals with Tar4Q L378C, E. coli aspartate chemoreceptor Tar, all-glutaminyl form with carboxyl-terminal pentapeptide, homodimer in Nanodiscs (E. coli) (UniProt P07017). The assay is described as follows: BLI; BLItz; biotinylated Tar homodimers in Nanodiscs held on an avidin sensor tip, CheB or CheBC in solution; 50 mM Tris-HCl pH 7.5, 10% glycerol, 5 mM MgCl2, 50 mM KCl, 2% BSA, 2 mM DTT; global fit, apparent rate constants, KD calculated from kon and koff.

Assay [2] addresses Tar4E L378C, E. coli aspartate chemoreceptor Tar, all-glutamyl form with carboxyl-terminal pentapeptide, homodimer in Nanodiscs (E. coli) (UniProt P07017). The description is as above.
The subject of another assay is CheB methylesterase. The conditions noted are these: relative to phosphorylation; ref [8]; cited from earlier work. The text has this: A high-activity form of the methylesterase/deamidase, designated CheB-P, is created by phosphorylation at a specific aspartyl residue in its N-terminal regulatory domain ([6][–][8]). However, activation is short-lived because of a high rate of autodephosphorylation ([7]), making it difficult to investigate binding of this activated form of the enzyme to chemoreceptors with confidence. Instead, we used a stable, functionally active mimic of phosphorylated CheB from Salmonella enterica subsp. enterica serovar Typhimurium (hereafter Salmonella) characterized by Saxl and coworkers ([26]). […] To investigate the role binding affinity might have in that activation, we measured binding of CheBC, a form of the methylesterase lacking the amino-terminal regulatory domain and linker, to pentapeptide-bearing and pentapeptide-lacking forms of Tar.

Assay [3] concerns the target Tar4EΔpp-6H L378C, E. coli Tar lacking the carboxyl-terminal pentapeptide, all-glutamyl form, homodimer in … (E. coli, UniProt P07017 1-553, L378C, biotinylated at L378C). The assay is described as follows: SPR. Background: Surface plasmon resonance follows binding to a sensor surface in real time, without labels.
Assay [4] deals with Tar4Q L378C, E. coli aspartate chemoreceptor Tar, all-glutaminyl form with carboxyl-terminal pentapeptide, … (E. coli, UniProt P07017 1-553, L378C, biotinylated at L378C). Description: SPR.
Assay [5] deals with Tar4E L378C, E. coli aspartate chemoreceptor Tar, all-glutamyl form with carboxyl-terminal pentapeptide, … (E. coli, UniProt P07017 1-553, L378C, biotinylated at L378C). The assay is described as follows: SPR.
Assay [6] deals with Tar4QΔpp-6H L378C, E. coli Tar lacking the carboxyl-terminal pentapeptide, all-glutaminyl form, homodimer in … (E. coli, UniProt P07017 1-553, L378C, biotinylated at L378C). Description: SPR.

B1: methylesterase/deamidase CheB from E. coli, low-activity, unphosphorylated form (enzyme, UniProt P07330 1-349, looked up)
chain: MSKIRVLSVDDSALMRQIMTEIINSHSDMEMVATAPDPLVARDLIKKFNPDVLTLDVEMPRMDGLDFLEKLMRLRPMPVVMVSSLTGKGSEVTLRALELGAIDFVTKPQLGIREGMLAYNEMIAEKVRTAAKASLAAHKPLSAPTTLKAGPLLSSEKLIAIGASTGGTEAIRHVLQPLPLSSPALLITQHMPPGFTRSFADRLNKLCQIGVKEAEDGERVLPGHAYIAPGDRHMELSRSGANYQIKIHDGPAVNRHRPSVDVLFHSVAKQAGRNAVGVILTGMGNDGAAGMLAMRQAGAWTLAQNEASCVVFGMPREAINMGGVCEVVDLSQVSQQMLAKISAGQAIRI
notes: CheB methylesterase/deamidase of E. coli, unphosphorylated, from plasmid pCW/cheB; measured with 2 mM DTT in the buffer; also called low-activity CheB; unmodified CheB; source: E. coli K-12 RP3098 with pCW/cheB, purified
As for B1, the Kd is 160 µM in assay [1] and 230 µM in assay [2].

B2: CheBC, catalytic domain of E. coli CheB lacking the regulatory domain and linker (domain or fragment)
chain: LSSEKLIAIGASTGGTEAIRHVLQPLPLSSPALLITQHMPPGFTRSFADRLNKLCQIGVKEAEDGERVLPGHAYIAPGDRHMELSRSGANYQIKIHDGPAVNRHRPSVDVLFHSVAKQAGRNAVGVILTGMGNDGAAGMLAMRQAGAWTLAQNEASCVVFGMPREAINMGGVCEVVDLSQVSQQMLAKISAGQAIRI
As to B2, the “activation by deletion of the regulatory domain” value in the assay with CheB methylesterase was “not as effectively as by phosphorylation”. In addition, the Kd in assay [3] was found to be 660 µM; in assay [4] it was 1400 µM; in assay [5], 590 µM; in assay [6], 1200 µM.
